{"source": "patent US20220017589A1", "about": "(BEIJING QL BIOPHARMACEUTICAL, published 2022)", "experiment_in_all_cases": "cell-based or functional assay", "key": {"[1]": {"target": "T1, human GFRAL (human, UniProt Q6UXV0 19-394)", "T1 sequence (looked up)": "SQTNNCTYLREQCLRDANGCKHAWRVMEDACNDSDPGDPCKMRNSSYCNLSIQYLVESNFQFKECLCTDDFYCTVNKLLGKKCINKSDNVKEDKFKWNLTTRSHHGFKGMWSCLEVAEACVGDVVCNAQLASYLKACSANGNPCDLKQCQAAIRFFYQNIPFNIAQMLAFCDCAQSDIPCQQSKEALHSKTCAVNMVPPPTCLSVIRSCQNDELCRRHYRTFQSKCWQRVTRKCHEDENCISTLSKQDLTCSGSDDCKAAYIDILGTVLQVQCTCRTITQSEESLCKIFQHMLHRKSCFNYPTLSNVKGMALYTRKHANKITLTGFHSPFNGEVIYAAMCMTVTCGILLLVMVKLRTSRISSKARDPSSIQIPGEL"}, "[2]": {"target": "T2, human GLP-1 receptor (human, UniProt P43220 24-463)"}, "[3]": {"target": "T1, human GFRAL", "remark": "listed apart in the source"}, "[4]": {"target": "T2, human GLP-1 receptor", "remark": "listed apart in the source"}}, "data": [{"binder": "MLC111 (ligand, Moiety B (HOOC-(CH2)16-CO-gGlu-2XADO-EDA-CO-CH2) on 51C of Linker (82C of fusion polypeptide)) HGEGTFTSDVSSYLEEQAAKEFIAWLVRGGGGAQPGAQPGAQPGAQPGAQPGAQPGAQPGAQPGQEPGAQPGQEPGAQPGQCPGQEPGQEPGAQPGQEPGAQPGQEPGAQPARQGDHCPLGPGRCCRLHTVRASLEDLGWADWVLSPREVQVTMCIGACPSQFRAANLHAQIKTSLHRLKPDTVPAPCCVPASYNPMVLIQKTDTGVSLQTYDDLLAKDCHCI", "values": [{"measurement": "GDF15 activity (EC50, pM)", "setting": "[1]", "value": 54.9, "unit": "pM"}, {"measurement": "GLP-1 activity (EC50, pM)", "setting": "[2]", "value": 11, "unit": "pM"}, {"measurement": "GDF15 activity (EC50, pM, 1% HSA)", "setting": "[3]", "value": 194, "unit": "pM"}, {"measurement": "GLP-1 activity (EC50, pM, 1% HSA)", "setting": "[4]", "value": 7.52, "unit": "pM"}]}, {"binder": "MLC093 (ligand, Moiety B (HOOC-(CH2)16-CO-gGlu-2XADO-EDA-CO-CH2) on 33C of Linker (64C of fusion polypeptide)) HGEGTFTSDVSSYLEEQAAKEFIAWLVRGGGGAQPGAQPGAQPGAQPGAQPGAQPGAQPGAQPCQEPGAQPGQEPGAQPGQEPGAQPGQEPGAQPGQEPGAQPGQEPGAQPARQGDHCPLGPGRCCRLHTVRASLEDLGWADWVLSPREVQVTMCIGACPSQFRAANLHAQIKTSLHRLKPDTVPAPCCVPASYNPMVLIQKTDTGVSLQTYDDLLAKDCHCI", "values": [{"measurement": "GDF15 activity (EC50, pM)", "setting": "[1]", "value": 54.8, "unit": "pM"}, {"measurement": "GLP-1 activity (EC50, pM)", "setting": "[2]", "value": 1.4, "unit": "pM"}, {"measurement": "GDF15 activity (EC50, pM, 1% HSA)", "setting": "[3]", "value": 67.6, "unit": "pM"}, {"measurement": "GLP-1 activity (EC50, pM, 1% HSA)", "setting": "[4]", "value": 27.3, "unit": "pM"}]}, {"binder": "MLC089 (ligand, Moiety B (HOOC-(CH2)16-CO-gGlu-2XADO-EDA-CO-CH2) on 39C of Linker (70C of fusion polypeptide)) HGEGTFTSDVSSYLEEQAAKEFIAWLVRGGGGAQPGAQPGAQPGAQPGAQPGAQPGAQPGAQPGQEPGQCPGQEPGAQPGQEPGAQPGQEPGAQPGQEPGAQPGQEPGAQPARQGDHCPLGPGRCCRLHTVRASLEDLGWADWVLSPREVQVTMCIGACPSQFRAANLHAQIKTSLHRLKPDTVPAPCCVPASYNPMVLIQKTDTGVSLQTYDDLLAKDCHCI", "values": [{"measurement": "GDF15 activity (EC50, pM)", "setting": "[1]", "value": 42.9, "unit": "pM"}, {"measurement": "GLP-1 activity (EC50, pM)", "setting": "[2]", "value": 1.2, "unit": "pM"}, {"measurement": "GDF15 activity (EC50, pM, 1% HSA)", "setting": "[3]", "value": 66.2, "unit": "pM"}, {"measurement": "GLP-1 activity (EC50, pM, 1% HSA)", "setting": "[4]", "value": 24.4, "unit": "pM"}]}, {"binder": "MLC087 (ligand, Moiety B (HOOC-(CH2)16-CO-gGlu-2XADO-EDA-CO-CH2) on 41C of Linker (72C of fusion polypeptide)) HGEGTFTSDVSSYLEEQAAKEFIAWLVRGGGGAQPGAQPGAQPGAQPGAQPGAQPGAQPGAQPGQEPGAQPCQEPGAQPGQEPGAQPGQEPGAQPGQEPGAQPGQEPGAQPARQGDHCPLGPGRCCRLHTVRASLEDLGWADWVLSPREVQVTMCIGACPSQFRAANLHAQIKTSLHRLKPDTVPAPCCVPASYNPMVLIQKTDTGVSLQTYDDLLAKDCHCI", "values": [{"measurement": "GDF15 activity (EC50, pM)", "setting": "[1]", "value": 23.8, "unit": "pM"}, {"measurement": "GLP-1 activity (EC50, pM)", "setting": "[2]", "value": 1.4, "unit": "pM"}, {"measurement": "GDF15 activity (EC50, pM, 1% HSA)", "setting": "[3]", "value": 49.2, "unit": "pM"}, {"measurement": "GLP-1 activity (EC50, pM, 1% HSA)", "setting": "[4]", "value": 24.4, "unit": "pM"}]}]}
